Laboratory results as given in patent US20200262913A1 (ZymoGenetics, published 2020).

Key:
[1] = target: T1, recombinant human IL-31 (hIL-31, BHK produced, A1277F, zcytor17lig CEE) (human, UniProt Q6EBC2 24-164); experiment: SPR (Biacore), mAb amine-coupled to CM5 chip, hIL-31 injected
T1 construct: also called recombinant hIL-31
T1 sequence: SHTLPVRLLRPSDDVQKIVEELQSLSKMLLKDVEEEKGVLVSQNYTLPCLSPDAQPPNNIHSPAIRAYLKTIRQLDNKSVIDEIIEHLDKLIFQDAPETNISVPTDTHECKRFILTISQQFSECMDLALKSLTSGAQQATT
Protocol: (§1) The purified monoclonal antibodies were immobilized in individual flow cells on a CM5 type sensor chip. Immobilizations were performed using a standard amine coupling procedure, aiming for an immobilization level of 500 Resonance Units (RU). The antibodies were diluted to 1-5 ug/ml in 10 mM NaAc pH 4.5.
(§2) HPS-EP pH 7.4 (10 mM HEPES, 150 mM NaCl, 3 mM EDTA and 0.005% Polysorbat P20) was used as running buffer, and diluents for the recombinant hIL-31 (hIL-31, BHK produced, A1277F, zcytor17lig CEE). The hIL-31 was tested in a 3-fold dilution series from 333.3 nM to 1.4 nM. Association (injection) was 4 min., followed by a 20 min. dissociation (wash) period. Flow rate was 50 ul/min. Experiments were performed at 25OC. Regeneration of the surface was accomplished by injection of 30 sec. pulse of 10 mM Glycin-HCl pH 1.8 or 1M formic acid, at a 30 ul/min flow rate. Detection in all flow cells simultaneously. Flow cell #1 contained no immobilized antibody, and was used for subtraction of background and bulk.
(§3) The kinetic parameters were calculated by global fitting of the data using a 1:1 langmuir binding model. Data was inspected for mass-transport limitations prior to calculation of the kinetic parameters. In some experiments the Rmax was fitted locally, and the RI constant at 0.

[2] = target: recombinant human IL-31 (C108S), produced in E. coli by ZymoGenetics, MW 18 kDa (human), Q6EBC2; experiment: cell-based or functional assay
[3] = target: T2, recombinant human IL-31 (as used in the NHK STAT3 phosphorylation assay of Example 5) (human, UniProt Q6EBC2 24-164, limits assumed); experiment: cell-based or functional assay
T2 sequence: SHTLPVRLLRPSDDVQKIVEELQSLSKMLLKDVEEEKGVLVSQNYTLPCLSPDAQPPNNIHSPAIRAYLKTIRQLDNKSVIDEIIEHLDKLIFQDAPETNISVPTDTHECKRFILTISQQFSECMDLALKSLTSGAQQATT

[4] = target: T1, recombinant human IL-31 (hIL-31, BHK …); experiment: SPR (Biacore), against parent 292.12.3.1
Protocol: as §1, §2, §3

B1: humanized 292.12.3.1 construct clone 27 (12VH1-gly + HC(F29L, M69L, R94F) + LC(F71Y)) (antibody, human IgG4, V domains shown)
VH: QVQLVQSGAEVKKPGASVKVSCKASGYTLTRYWMQWVRQAPGQGLEWMGAIYPGDGDTRYSQKFQGRVTLTRDTSISTVYMELSSLRSEDTAVYYCAFPDGYYAAPYGMDYWGQGTLVTVSS
VL: DIQMTQSPSSLSASVGDRVTITCRASGNIHNYLAWYQQKPGKVPKLLIYNAKTLADGVPSRFSGSGSGTDYTLTISSLQPEDVATYYCQHFWSTPWTFGQGTKVEIKR
In the case of B1, the Kd [1] is reported as 0.8 nM, the koff [1] is reported as 7.9e-05 s⁻¹ and the kon [1] is reported as 98000 M⁻¹ s⁻¹. The Average Fold loss in potency relative to 292.12.3.1, BAF-3(hIL-31R) proliferation assay [2] was 18.7 fold, the Average Potency (IC50), inhibition of hIL-31-induced proliferation of BAF-3(hIL-31R) cells [2] was 29.1 nM and the “IC50, IL-31-induced STAT3 phosphorylation in NHK, Exp 8” value (from here on “IC50 … Exp 8”) [3] was 3.42 nM. For the same binder, the “IC50, IL-31-induced STAT3 phosphorylation in NHK, Exp 9” value (shortened to “IC50 … Exp 9”) [3] was 9.59 nM, the “Relative potency loss (KD)” value [4] was ~0.5 x to parent and the “Relative potency loss (kd)” value [4] was ~1.3 x to parent.

B2: humanized 292.12.3.1 construct clone 28 (12VH1-gly + HC(F29L, R71A, R94F) + LC(F71Y)) (antibody, human IgG4, V domains shown)
VH: QVQLVQSGAEVKKPGASVKVSCKASGYTLTRYWMQWVRQAPGQGLEWMGAIYPGDGDTRYSQKFQGRVTMTADTSISTVYMELSSLRSEDTAVYYCAFPDGYYAAPYGMDYWGQGTLVTVSS
VL: DIQMTQSPSSLSASVGDRVTITCRASGNIHNYLAWYQQKPGKVPKLLIYNAKTLADGVPSRFSGSGSGTDYTLTISSLQPEDVATYYCQHFWSTPWTFGQGTKVEIKR
In the case of B2, the Kd [1] is reported as 0.46 nM, the koff [1] is reported as 5.6e-05 s⁻¹ and the kon [1] is reported as 120000 M⁻¹ s⁻¹. The Average Fold loss in potency relative to 292.12.3.1, BAF-3(hIL-31R) proliferation assay [2] was 17.1 fold, the Average Potency (IC50), inhibition of hIL-31-induced proliferation of BAF-3(hIL-31R) cells [2] was 26.4 nM and the “IC50 … Exp 8” value [3] was 10.5 nM. For the same binder, the “IC50 … Exp 9” value [3] was 5.95 nM and the “Relative potency loss (KD)” value [4] was ~0.25 x to parent.

B3: humanized 292.12.3.1 construct clone 29 (12VH1-gly + HC(F29L, T73K, R94F) + LC(F71Y)) (antibody, human IgG4, V domains shown)
VH: QVQLVQSGAEVKKPGASVKVSCKASGYTLTRYWMQWVRQAPGQGLEWMGAIYPGDGDTRYSQKFQGRVTMTRDKSISTVYMELSSLRSEDTAVYYCAFPDGYYAAPYGMDYWGQGTLVTVSS
VL: DIQMTQSPSSLSASVGDRVTITCRASGNIHNYLAWYQQKPGKVPKLLIYNAKTLADGVPSRFSGSGSGTDYTLTISSLQPEDVATYYCQHFWSTPWTFGQGTKVEIKR
Binder B3 has a Kd [1] of 0.99 nM, a koff [1] of 8.98e-05 s⁻¹ and a kon [1] of 90000 M⁻¹ s⁻¹. For the same binder, the Average Fold loss in potency relative to 292.12.3.1, BAF-3(hIL-31R) proliferation assay [2] was 8.3 fold, the Average Potency (IC50), inhibition of hIL-31-induced proliferation of BAF-3(hIL-31R) cells [2] was 12.9 nM and the “IC50 … Exp 8” value [3] was 4.49 nM. The “IC50 … Exp 9” value [3] was 5.37 nM, the “Relative potency loss (KD)” value [4] was ~0.5 x to parent and the “Relative potency loss (kd)” value [4] was ~1.5 x to parent.

B4: humanized 292.12.3.1 construct clone 30 (12VH1-gly + HC(F29L, V78A, R94F) + LC(F71Y)) (antibody, human IgG4, V domains shown)
VH: QVQLVQSGAEVKKPGASVKVSCKASGYTLTRYWMQWVRQAPGQGLEWMGAIYPGDGDTRYSQKFQGRVTMTRDTSISTAYMELSSLRSEDTAVYYCAFPDGYYAAPYGMDYWGQGTLVTVSS
VL: DIQMTQSPSSLSASVGDRVTITCRASGNIHNYLAWYQQKPGKVPKLLIYNAKTLADGVPSRFSGSGSGTDYTLTISSLQPEDVATYYCQHFWSTPWTFGQGTKVEIKR
B4 was tested, and the Kd [1] was 1.1 nM, the koff [1] was 9e-05 s⁻¹ and the kon [1] was 78000 M⁻¹ s⁻¹. For the same binder, the Average Fold loss in potency relative to 292.12.3.1, BAF-3(hIL-31R) proliferation assay [2] was 37.1 fold, the Average Potency (IC50), inhibition of hIL-31-induced proliferation of BAF-3(hIL-31R) cells [2] was 57.8 nM and the “IC50 … Exp 8” value [3] was 14.8 nM. For the same binder, the “IC50 … Exp 9” value [3] was 8.71 nM, the “Relative potency loss (KD)” value [4] was ~0.5 x to parent and the “Relative potency loss (kd)” value [4] was ~1.5 x to parent.

B5: humanized 292.12.3.1 construct clone 31 (12VH1-gly + HC(F29L, M69L, R71A, V78A, R94F) + LC(F71Y)) (antibody, human IgG4, V domains shown)
VH: QVQLVQSGAEVKKPGASVKVSCKASGYTLTRYWMQWVRQAPGQGLEWMGAIYPGDGDTRYSQKFQGRVTLTADTSISTAYMELSSLRSEDTAVYYCAFPDGYYAAPYGMDYWGQGTLVTVSS
VL: DIQMTQSPSSLSASVGDRVTITCRASGNIHNYLAWYQQKPGKVPKLLIYNAKTLADGVPSRFSGSGSGTDYTLTISSLQPEDVATYYCQHFWSTPWTFGQGTKVEIKR
B5 was tested, and the Kd [1] was 0.77 nM, the koff [1] was 7e-05 s⁻¹ and the kon [1] was 92000 M⁻¹ s⁻¹. For the same binder, the Average Fold loss in potency relative to 292.12.3.1, BAF-3(hIL-31R) proliferation assay [2] was 25.1 fold, the Average Potency (IC50), inhibition of hIL-31-induced proliferation of BAF-3(hIL-31R) cells [2] was 32.4 nM and the “IC50 … Exp 8” value [3] was 11 nM. The “IC50 … Exp 9” value [3] was 7.82 nM and the “Relative potency loss (KD)” value [4] was ~0.4 x to parent.

B6: humanized 292.12.3.1 construct clone 32 (12VH1-gly + HC(F29L, R71A, V78A, R94F) + LC(F71Y)) (antibody, human IgG4, V domains shown)
VH: QVQLVQSGAEVKKPGASVKVSCKASGYTLTRYWMQWVRQAPGQGLEWMGAIYPGDGDTRYSQKFQGRVTMTADTSISTAYMELSSLRSEDTAVYYCAFPDGYYAAPYGMDYWGQGTLVTVSS
VL: DIQMTQSPSSLSASVGDRVTITCRASGNIHNYLAWYQQKPGKVPKLLIYNAKTLADGVPSRFSGSGSGTDYTLTISSLQPEDVATYYCQHFWSTPWTFGQGTKVEIKR
With B6 the Kd [1] was 0.64 nM, the koff [1] was 5.9e-05 s⁻¹ and the kon [1] was 93000 M⁻¹ s⁻¹. The Average Fold loss in potency relative to 292.12.3.1, BAF-3(hIL-31R) proliferation assay [2] was 14.7 fold, the Average Potency (IC50), inhibition of hIL-31-induced proliferation of BAF-3(hIL-31R) cells [2] was 18.9 nM and the “IC50 … Exp 8” value [3] was 11.5 nM. For the same binder, the “IC50 … Exp 9” value [3] was 6.43 nM and the “Relative potency loss (KD)” value [4] was ~0.3 x to parent.

B7: humanized 292.12.3.1 construct clone 33 (12VH1(germ)-gly + fback) (antibody, human IgG4, V domains shown)
VH: QVQLVQSGAEVKKPGASVKVSCKASGYTLTRYWMQWVRQAPGQGLEWMGAIYPGDGDTRYSQKFQGRVTLTADKSTSTAYMELSSLRSEDTAVYYCAFPDGYYAAPYGMDYWGQGTLVTVSS
VL: DIQMTQSPSSLSASVGDRVTITCRASGNIHNYLAWYQQKPGKVPKLLIYNAKTLADGVPSRFSGSRSETQYSLTISSLQPEDVATYYCQHFWSTPWTFGQGTKVEIKR
B7 gave a Kd [1] of 1.3 nM, a koff [1] of 6.8e-05 s⁻¹ and a kon [1] of 52000 M⁻¹ s⁻¹. The Average Fold loss in potency relative to 292.12.3.1, BAF-3(hIL-31R) proliferation assay [2] was 2.3 fold, the Average Potency (IC50), inhibition of hIL-31-induced proliferation of BAF-3(hIL-31R) cells [2] was 3.1 nM and the “IC50 … Exp 8” value [3] was 4.08 nM. For the same binder, the “IC50 … Exp 9” value [3] was 5.68 nM, the “IC50, IL-31-induced STAT3 phosphorylation in NHK, Exp 10” value (“IC50 … Exp 10” below) [3] was 13.6 nM and the “Relative potency loss (KD)” value [4] was ~0.6 x to parent.

B8: humanized 292.12.3.1 construct clone 35 (12VH1-gly + HC(F29L, R94F)) (antibody, human IgG4, V domains shown)
VH: QVQLVQSGAEVKKPGASVKVSCKASGYTLTRYWMQWVRQAPGQGLEWMGAIYPGDGDTRYSQKFQGRVTMTRDTSISTVYMELSSLRSEDTAVYYCAFPDGYYAAPYGMDYWGQGTLVTVSS
VL: DIQMTQSPSSLSASVGDRVTITCRASGNIHNYLAWYQQKPGKVPKLLIYNAKTLADGVPSRFSGSGSGTDFTLTISSLQPEDVATYYCQHFWSTPWTFGQGTKVEIKR
For B8, the Kd [1] was 1.6 nM, the koff [1] was 0.0001 s⁻¹ and the kon [1] was 64000 M⁻¹ s⁻¹. The Average Fold loss in potency relative to 292.12.3.1, BAF-3(hIL-31R) proliferation assay [2] was 75.1 fold, the Average Potency (IC50), inhibition of hIL-31-induced proliferation of BAF-3(hIL-31R) cells [2] was 62.1 nM and the “IC50 … Exp 10” value [3] was 12 nM. The “Relative potency loss (KD)” value [4] was ~0.7 x to parent and the “Relative potency loss (kd)” value [4] was ~1.5 x to parent.

B9: humanized 292.12.3.1 construct clone 36 (12VH1(germ)-gly + HC(F29L, T73K, R94F) + LC(F71Y)) (antibody, human IgG4, V domains shown)
VH: QVQLVQSGAEVKKPGASVKVSCKASGYTLTRYWMQWVRQAPGQGLEWMGAIYPGDGDTRYSQKFQGRVTMTRDKSTSTVYMELSSLRSEDTAVYYCAFPDGYYAAPYGMDYWGQGTLVTVSS
VL: DIQMTQSPSSLSASVGDRVTITCRASGNIHNYLAWYQQKPGKVPKLLIYNAKTLADGVPSRFSGSGSGTDYTLTISSLQPEDVATYYCQHFWSTPWTFGQGTKVEIKR
B9 showed a Kd [1] of 1.6 nM, a koff [1] of 0.000108 s⁻¹ and a kon [1] of 68000 M⁻¹ s⁻¹. The Average Potency (IC50), inhibition of hIL-31-induced proliferation of BAF-3(hIL-31R) cells [2] was 14.1 nM, the “IC50 … Exp 10” value [3] was 8.95 nM and the “Relative potency loss (KD)” value [4] was ~0.5 x to parent. The “Relative potency loss (kd)” value [4] was ~1.5 x to parent.
